Data taken from patent US20060178504A1.

Target: binding sites on guinea-pig eosinophils (guinea-pig)
Experiment: radioligand binding, 0.1 nM 125I-RANTES on 4x10^5 guinea-pig eosinophils, no competitor

Work on “recombinant human RANTES (from UniProt P13501 24-91) (ligand)” yielded a BO of 14.4%.
